Numbering of substitutions follows the chain as printed.
B1: NOV1126 (antibody, human IgG1, lambda, V domains shown)
VH: EVQLLESGGGLVQPGGSLRLSCAASGFTFSDHAIDWVRQAPGKGLEWVSVIAGSGSITYYADSVKGRFTISRDNSKNTLYLQMNSLRAEDTAVYYCARDTGVYREYMDVWGQGTLVTVSS
VL: SYELTQPLSVSVALGQTARITCSGDAIGTKFAHWYQQKPGQAPVLVIYYDHERPSGIPERFSGSNSGNTATLTISRAQAGDEADYYCYSRASSNLVFGGGTKLTVLG
B2: NOV1127 (antibody, human IgG1, kappa, V domains shown)
VH: QVQLQQSGPGLVKPSQTLSLTCAISGDSVSSQSAAWNWIRQSPSRGLEWLGRIYYRSKWYNDYAVSVKSRITINPDTSKNQFSLQLNSVTPEDTAVYYCARERSYRDYFDYWGQGTLVTVSS
VL: DIQMTQSPSSLSASVGDRVTITCRASQGIFTYLNWYQQKPGKAPKLLIYAASTLQSGVPSRFSGSGSGTDFTLTISSLQPEDFATYYCQQYYSTSLTFGQGTKVEIKR
B3: NOV0692 (antibody, human IgG1, lambda, V domains shown)
VH: QVQLVESGGGLVKPGGSLRLSCAASGFTFSRYWMDWVRQAPGKGLEWVGRIKSKANGGITDYAAPVKGRFTISRDDSKNTLYLQMNSLKTEDTAVYYCARGMTFLGIWGQGTLVTVSS
VL: DIELTQPPSVSVSPGQTASITCSGDSIGSKYAQWYQQKPGQAPVLVIYYNSERPSGIPERFSGSNSGNTATLTISGTQAEDEADYYCQSWDGQSTIRVFGGGTKLTVLG
B4: NOV0712-SMCC-DM1 (antibody, human IgG1, kappa, V domains shown)
VH: QVQLLESGGGLVQPGGSLRLSCAASGFTFSSHGMHWVRQAPGKGLEWVSVISGSGSNTGYADSVKGRFTISRDNSKNTLYLQMNSLRAEDTAVYYCARQWGSYAFDSWGQGTLVTVSS
VL: DIQMTQSPSSLSASVGDRVTITCRASQSISSYLNWYQQKPGKAPKLLIYAVSTLQSGVPSRFSGSGSGTDFTLTISSLQPEDFATYYCQQSGTFPPTTFGQGTKVEIKR
modifications: SMCC-DM1 on primary amines, sites not stated
B5: NOV0712-SPDB-DM4 (antibody, human IgG1, kappa, V domains shown)
VH: B4 VH
VL: B4 VL
modifications: SPDB-DM4 on primary amines, sites not stated
B6: NOV0710-SPDB-DM4 (antibody, human IgG1, kappa, V domains shown)
VH: QVQLLESGGGLVQPGGSLRLSCAASGFTFSSYAMSWVRQAPGKGLEWVSVIRSSGSSTYYADSVKGRFTISRDNSKNTLYLQMNSLRAEDTAVYYCARGGGYFDYWGQGTLVTVSS
VL: B2 VL with G28S, F30S, T31L, Y32W, S93T, T94S, S95P, L96Y
modifications: SPDB-DM4 on primary amines, sites not stated
B7: NOV0720-SMCC-DM1 (antibody, human IgG1, lambda, V domains shown)
VH: QVQLQQSGPGLVKPSQTLSLTCAISGDSVSSNSAGWNWIRQSPSRGLEWLGRIYYRSKWYNDYAVSVKSRITINPDTSKNQFSLQLNSVTPEDTAVYYCAREKYTVSFYDFFDYWGQGTLVTVSS
VL: DIELTQPPSVSVSPGQTASITCSGDNIGSMTAHWYQQKPGQAPVLVIYDKNERPSGIPERFSGSNSGNTATLTISGTQAEDEADYYCQSWDDSYNSVVFGGGTKLTVLG
modifications: SMCC-DM1 on primary amines, sites not stated
B8: NOV0718-SMCC-DM1 (antibody, human IgG1, lambda, V domains shown)
VH: QVQLVESGGGLVKPGGSLRLSCAASGFTFNSYALHWVRQAPGKGLEWVGRIKSKTNGGTTDYAAPVKGRFTISRDDSKNTLYLQMNSLKTEDTAVYYCARVDATYSYSGYYYPMDYWGQGTLVTVSS
VL: DIELTQPPSVSVSPGQTASITCSGDKIPTYTVHWYQQKPGQAPVLVIYDDNKRPSGIPERFSGSNSGNTATLTISGTQAEDEADYYCQSTASGTVVFGGGTKLTVLG
modifications: SMCC-DM1 on primary amines, sites not stated
B9: NOV0719-SMCC-DM1 (antibody, human IgG1, kappa, V domains shown)
VH: QVQLLESGGGLVQPGGSLRLSCAASGFTFSSHWVHWVRQAPGKGLEWVSVISYMGSSTYYADSVKGRFTISRDNSKNTLYLQMNSLRAEDTAVYYCARGSYDMAFDVWGQGTLVTVSS
VL: B2 VL with G28S, F30V, T31S, A50D, T53S, Y91S, Y92G, T94H, L96I
modifications: SMCC-DM1 on primary amines, sites not stated

Target: T1, hCDH6aa54-615 APPavi (human, UniProt P55285 54-615)
T1 sequence: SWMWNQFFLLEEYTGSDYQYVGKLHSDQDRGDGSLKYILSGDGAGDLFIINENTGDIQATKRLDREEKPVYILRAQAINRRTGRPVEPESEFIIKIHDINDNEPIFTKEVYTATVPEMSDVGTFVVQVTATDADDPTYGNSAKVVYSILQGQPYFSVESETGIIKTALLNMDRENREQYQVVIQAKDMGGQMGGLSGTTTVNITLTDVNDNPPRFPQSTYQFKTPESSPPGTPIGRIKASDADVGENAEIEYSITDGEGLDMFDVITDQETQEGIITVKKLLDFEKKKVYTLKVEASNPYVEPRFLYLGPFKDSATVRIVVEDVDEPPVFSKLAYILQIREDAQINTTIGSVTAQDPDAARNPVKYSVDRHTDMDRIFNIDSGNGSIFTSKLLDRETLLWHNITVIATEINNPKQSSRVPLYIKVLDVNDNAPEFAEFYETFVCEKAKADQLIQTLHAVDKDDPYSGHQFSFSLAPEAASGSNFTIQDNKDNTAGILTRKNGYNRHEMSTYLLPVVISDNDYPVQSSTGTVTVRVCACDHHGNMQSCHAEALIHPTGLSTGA
Assay: SPR binning

Binder | response of secondary antibody on primary antibody-CDH6 complex
B1 | 36.9
B2 | 30.9
B3 | 17.9

Target: T1, hCDH6aa54-615 APPavi
Assay: SPR binning
Remark: another data set of the same source

Binder | response of secondary antibody on primary antibody-CDH6 complex
B1 | 26.7
B2 | 22.4
B3 | 14.1

Target: T1, hCDH6aa54-615 APPavi
Assay: SPR binning
Remark: another data set of the same source

Binder | response of secondary antibody on primary antibody-CDH6 complex
B1 | 18.7
B2 | 25.4
B3 | -2.84

Target: T2, human CDH6 on cells (human, UniProt P55285 54-790)
T2 sequence: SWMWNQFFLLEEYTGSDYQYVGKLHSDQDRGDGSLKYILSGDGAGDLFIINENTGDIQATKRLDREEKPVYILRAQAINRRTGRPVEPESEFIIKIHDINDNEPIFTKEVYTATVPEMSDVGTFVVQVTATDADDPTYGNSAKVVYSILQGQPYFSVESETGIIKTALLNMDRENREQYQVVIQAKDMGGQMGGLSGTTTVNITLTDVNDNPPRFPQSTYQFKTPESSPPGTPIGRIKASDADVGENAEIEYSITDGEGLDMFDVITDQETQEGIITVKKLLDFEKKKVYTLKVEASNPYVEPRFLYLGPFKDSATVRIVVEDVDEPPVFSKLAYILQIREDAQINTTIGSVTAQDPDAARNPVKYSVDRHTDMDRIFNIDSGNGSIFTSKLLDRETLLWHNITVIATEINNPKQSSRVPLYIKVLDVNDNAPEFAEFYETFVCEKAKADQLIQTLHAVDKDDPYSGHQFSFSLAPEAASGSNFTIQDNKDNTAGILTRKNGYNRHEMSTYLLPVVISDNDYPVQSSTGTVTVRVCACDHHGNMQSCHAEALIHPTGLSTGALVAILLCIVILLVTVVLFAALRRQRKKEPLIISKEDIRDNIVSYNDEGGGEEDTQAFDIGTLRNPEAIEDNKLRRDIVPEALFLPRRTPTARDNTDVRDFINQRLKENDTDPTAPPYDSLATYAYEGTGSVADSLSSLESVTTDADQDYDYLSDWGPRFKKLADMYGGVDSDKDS
Assay: cell-based or functional assay

Binder | Amax (%), inhibition of proliferation, OVCAR3 cells | Amax (%), inhibition of proliferation, OVCAR8 (engineered CDH6+) cells | IP [nM], inhibition of proliferation, OVCAR3 cells | IP [nM], inhibition of proliferation, OVCAR8 (engineered CDH6+) cells
B4 | 88% | 95% | 0.065 nM | 0.015 nM
B5 | 88% | 84% | 0.008 nM | 0.012 nM
B6 | 88% | 85% | 0.01 nM | 0.018 nM

Target: T1, hCDH6aa54-615 APPavi
Assay: SPR binning
Remark: another data set of the same source

Binder | response of secondary antibody on primary antibody-CDH6 complex
B1 | 8.59
B2 | 16.5
B3 | 7.83

Target: T1, hCDH6aa54-615 APPavi
Assay: SPR binning
Remark: another data set of the same source

Binder | response of secondary antibody on primary antibody-CDH6 complex
B1 | 56.6
B2 | 36.7

Target: T1, hCDH6aa54-615 APPavi
Assay: SPR binning
Remark: another data set of the same source

Binder | response of secondary antibody on primary antibody-CDH6 complex
B1 | 61.6
B2 | 51.5
B3 | 35.5

Target: T1, hCDH6aa54-615 APPavi
Assay: SPR binning
Remark: another data set of the same source

Binder | response of secondary antibody on primary antibody-CDH6 complex
B1 | 30.1
B2 | 17.8
B3 | 23.2

Target: T2, human CDH6 on cells
Assay: cell-based or functional assay
Remark: another data set of the same source

Binder | percent inhibition at 1.22 nM ADC, JHOS4 cells | percent inhibition at 1.22 nM ADC, KNS42 cells | percent inhibition at 1.22 nM ADC, NCIH661 cells | percent inhibition at 1.22 nM ADC, OVCAR3 cells | percent inhibition at 1.22 nM ADC, SNU8 cells
B7 | 43.5% | 57% | 1.94% | 80.7% | 3.56%
B8 | -5.03% | 3.5% | 2.51% | -3.8% | 3.35%
B9 | 27.2% | 41% | -9.87% | 76% | 3.18%
B4 | 67.6% | 56.8% | 32.5% | 87.6% | 31.4%
